Reference: patent US20100215684A1 (UNIVERSITY OF QUEENSLAND, published 2010)

Molecular target: T1, Human fibrinogen (Sigma), biotinylated (human, UniProt P02671 20-629; P02675 31-491; P02679 27-437)
T1 construct: also called biotinylated fibrinogen
T1 sequence 1: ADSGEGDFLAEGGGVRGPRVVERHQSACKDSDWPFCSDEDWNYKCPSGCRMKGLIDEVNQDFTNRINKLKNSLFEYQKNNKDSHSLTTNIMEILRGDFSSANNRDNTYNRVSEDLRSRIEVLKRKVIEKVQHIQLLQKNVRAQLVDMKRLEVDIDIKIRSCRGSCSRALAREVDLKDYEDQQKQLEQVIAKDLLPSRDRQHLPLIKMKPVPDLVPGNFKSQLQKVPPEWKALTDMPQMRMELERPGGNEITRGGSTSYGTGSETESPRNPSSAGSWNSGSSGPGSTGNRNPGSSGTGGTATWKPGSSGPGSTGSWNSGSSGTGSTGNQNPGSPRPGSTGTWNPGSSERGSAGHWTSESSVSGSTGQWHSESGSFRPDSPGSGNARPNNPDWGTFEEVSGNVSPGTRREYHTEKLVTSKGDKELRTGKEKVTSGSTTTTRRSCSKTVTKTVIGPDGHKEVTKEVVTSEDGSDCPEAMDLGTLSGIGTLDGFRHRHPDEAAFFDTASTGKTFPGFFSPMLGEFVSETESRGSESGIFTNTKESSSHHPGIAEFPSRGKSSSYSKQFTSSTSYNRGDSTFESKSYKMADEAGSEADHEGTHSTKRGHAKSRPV
T1 sequence 2: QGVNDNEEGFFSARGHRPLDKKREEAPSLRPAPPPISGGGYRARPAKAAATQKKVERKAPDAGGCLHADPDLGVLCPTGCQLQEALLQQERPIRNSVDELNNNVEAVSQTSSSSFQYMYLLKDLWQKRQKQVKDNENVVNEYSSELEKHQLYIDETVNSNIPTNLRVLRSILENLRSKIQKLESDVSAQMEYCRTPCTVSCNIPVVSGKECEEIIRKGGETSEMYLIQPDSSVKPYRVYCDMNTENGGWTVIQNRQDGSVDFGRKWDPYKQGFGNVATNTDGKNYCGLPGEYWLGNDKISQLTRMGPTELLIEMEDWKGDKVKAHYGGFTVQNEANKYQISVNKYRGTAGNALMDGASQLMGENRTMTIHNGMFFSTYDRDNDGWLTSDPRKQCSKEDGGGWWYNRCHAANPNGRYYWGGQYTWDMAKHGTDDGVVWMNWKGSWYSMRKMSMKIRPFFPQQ
T1 sequence 3: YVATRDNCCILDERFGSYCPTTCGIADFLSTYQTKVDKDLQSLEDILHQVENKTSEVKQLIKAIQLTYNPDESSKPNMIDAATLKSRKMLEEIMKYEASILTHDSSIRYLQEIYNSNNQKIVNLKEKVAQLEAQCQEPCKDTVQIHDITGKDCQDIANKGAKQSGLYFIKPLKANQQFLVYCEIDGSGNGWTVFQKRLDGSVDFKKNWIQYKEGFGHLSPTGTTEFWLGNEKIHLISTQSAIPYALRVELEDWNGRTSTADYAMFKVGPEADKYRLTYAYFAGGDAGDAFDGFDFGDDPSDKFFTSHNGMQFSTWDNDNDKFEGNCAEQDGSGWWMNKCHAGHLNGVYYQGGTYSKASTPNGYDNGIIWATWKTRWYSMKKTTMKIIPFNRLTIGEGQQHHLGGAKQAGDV
Experiment: fibrinogen binding of expressed peptides (data not shown)

B1: S. iniae strain QMA136 M protein C-terminal amino acid sequence (309 amino acid peptide expressed from isolate QMA0136) (other)
chain: MAEIQEEANKKIAAVQTELENIDSENQSLSTANEQLKADLEQAARELDTLQSSYYTVENEKAELQKQLAEKDAKIAELEANNTELTATVADLTKALEAAKKEAEEKPALKAKVAELEKALAEAKGLGTKVAELEKDLEKAQAEAKDLETKLAETKAELEKVQAEKAELEATIEKMKKEHAEELDKLNALLADKEKLVEALNKEIEALKKDFDEKSNHSAQEKAKFQEELERLKKELAAKINMPMGNTKGMANAAGNAQTPANNGQNNAVKNQLPSTGDKAGNPFFTASAIAVMVGAGTLAYGRKRKEEE
notes: The expression construct is not described; also called QMA136 C-terminal fragment
B1: no binding.
